Series [1] deals with T1, hTHEM2 (human hotdog-fold thioesterase THEM2, thioesterase superfamily member 2) (Homo sapiens, UniProt Q9NPJ3).
T1 sequence (Q9NPJ3 1-140): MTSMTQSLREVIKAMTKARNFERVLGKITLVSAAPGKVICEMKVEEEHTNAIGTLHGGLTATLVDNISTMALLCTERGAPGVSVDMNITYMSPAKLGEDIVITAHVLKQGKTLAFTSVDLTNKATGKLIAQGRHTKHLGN
The series is described as follows: steady-state competitive inhibition, DTNB thioesterase assay. In kind it is biochemical.

Substrate in series [2]: CCCCCCCCCCCCCC(=O)SCCNC(=O)CCNC(=O)[C@H](O)C(C)(C)COP(=O)(O)OP(=O)(O)OC[C@H]1O[C@@H](n2cnc3c(N)ncnc32)[C@H](O)[C@@H]1OP(=O)(O)O
The series is described as follows: purified protein. To be noted: pH 7.5; 25.0 °C.

Substrate in series [3]: CC(C)(COP(=O)(O)OP(=O)(O)OC[C@H]1O[C@@H](n2cnc3c(N)ncnc32)[C@H](O)[C@@H]1OP(=O)(O)O)[C@@H](O)C(=O)NCCC(=O)NCCSC(=O)Cc1ccc(O)c(O)c1
The series is described as follows: steady-state hydrolysis kinetics. Particulars: pH 7.5; 25.0 °C. In kind it is biochemical, Homo sapiens.

Substrate in series [4]: CC(C)(COP(=O)(O)OP(=O)(O)OC[C@H]1O[C@@H](n2cnc3c(N)ncnc32)[C@H](O)[C@@H]1OP(=O)(O)O)[C@@H](O)C(=O)NCCC(=O)NCCSC(=O)Cc1cccc(O)c1
Briefly: steady-state hydrolysis kinetics. Particulars: pH 7.5; 25.0 °C. In kind it is biochemical, Homo sapiens.

Substrate in series [5]: CCCCCC/C=C\CCCCCCCC(=O)SCCNC(=O)CCNC(=O)[C@H](O)C(C)(C)COP(=O)(O)OP(=O)(O)OC[C@H]1O[C@@H](n2cnc3c(N)ncnc32)[C@H](O)[C@@H]1OP(=O)(O)O
Briefly: steady-state hydrolysis kinetics. In kind it is biochemical, Homo sapiens. To be noted: pH 7.5; 25.0 °C.

Substrate in series [6]: CCCCCCCC/C=C\CCCCCCCC(=O)SCCNC(=O)CCNC(=O)[C@H](O)C(C)(C)COP(=O)(O)OP(=O)(O)OC[C@H]1O[C@@H](n2cnc3c(N)ncnc32)[C@H](O)[C@@H]1OP(=O)(O)O
The series is described as follows: steady-state hydrolysis kinetics. To be noted: pH 7.5; 25.0 °C. It counts as biochemical, Homo sapiens.

Substrate in series [7]: CCCCCCCCCC(=O)SCCNC(=O)CCNC(=O)[C@H](O)C(C)(C)COP(=O)(O)OP(=O)(O)OC[C@H]1O[C@@H](n2cnc3c(N)ncnc32)[C@H](O)[C@@H]1OP(=O)(O)O
The series is described as follows: steady-state hydrolysis kinetics. To be noted: pH 7.5; 25.0 °C. In kind it is biochemical, Homo sapiens.

Substrate in series [8]: CCCCCCCCCCCC(=O)SCCNC(=O)CCNC(=O)[C@H](O)C(C)(C)COP(=O)(O)OP(=O)(O)OC[C@H]1O[C@@H](n2cnc3c(N)ncnc32)[C@H](O)[C@@H]1OP(=O)(O)O
The series is described as follows: steady-state hydrolysis kinetics. Particulars: pH 7.5; 25.0 °C. In kind it is biochemical, Homo sapiens.

In general, Ki refers to the equilibrium dissociation constant of an inhibitor or competing ligand from its target. Higher therefore signals lower affinity. On to `CCNC(=O)CCNC(=O)[C@H](O)C(C)(C)COP(=O)(O)OP(=O)(O)OC[C@H]1O[C@@H](n2cnc3c(N)ncnc32)[C@H](O)[C@@H]1OP(=O)(O)O` [desulfoCoA], for which, in series [1], the Ki is 9 µM.

B1: hTHEM2 (human hotdog-fold thioesterase THEM2, thioesterase superfamily member 2) (Homo sapiens) (protein)
chain: MTSMTQSLREVIKAMTKARNFERVLGKITLVSAAPGKVICEMKVEEEHTNAIGTLHGGLTATLVDNISTMALLCTERGAPGVSVDMNITYMSPAKLGEDIVITAHVLKQGKTLAFTSVDLTNKATGKLIAQGRHTKHLGN
One may read the Km as the substrate concentration at which the rate is half of its maximum. As usually defined, the kcat is the number of substrate molecules converted per active site and unit of time at saturation. In general, kcat/Km refers to the turnover number divided by the Michaelis constant. Regarding B1, the Km was 5 µM in series [2]; 10 µM in series [3]; 41 µM in series [4]; 9 µM in series [5]; 9 µM in series [6]; 4.9 µM in series [7]. For the same molecule, in series [8], the Km stood at 9.9 µM. Further, the kcat in series [2] is 0.02 s⁻¹; in series [3], 0.19 ± 0.01 s⁻¹; in series [4], 1.4 ± 0.1 s⁻¹; in series [5] it was 0.017 ± 0.001 s⁻¹; in series [6] it was 0.011 ± 0.001 s⁻¹; in series [7], 0.016 ± 0.001 s⁻¹. Also, the kcat in series [8] was 0.019 ± 0.001 s⁻¹. Besides, the kcat/Km in series [2] was determined as 4000 M⁻¹ s⁻¹; in series [3], 18000 M⁻¹ s⁻¹; in series [4], 35000 M⁻¹ s⁻¹; in series [5], 1900 M⁻¹ s⁻¹; in series [6] it was 1300 M⁻¹ s⁻¹; in series [7], 3300 M⁻¹ s⁻¹. In addition, the kcat/Km in series [8] amounted to 1900 M⁻¹ s⁻¹.

(Values after PMC2929599 (Biochemistry, 2009).)
